Residue numbers refer to the chain shown, from its start.
T1: biotinylated recombinant human IL-12Rβ2 (human, UniProt Q99665 24-622, random biotinylated)
T1 construct: Recombinant protein produced in-house; also called hIL-12RB2; human IL-12RB2
T1 sequence: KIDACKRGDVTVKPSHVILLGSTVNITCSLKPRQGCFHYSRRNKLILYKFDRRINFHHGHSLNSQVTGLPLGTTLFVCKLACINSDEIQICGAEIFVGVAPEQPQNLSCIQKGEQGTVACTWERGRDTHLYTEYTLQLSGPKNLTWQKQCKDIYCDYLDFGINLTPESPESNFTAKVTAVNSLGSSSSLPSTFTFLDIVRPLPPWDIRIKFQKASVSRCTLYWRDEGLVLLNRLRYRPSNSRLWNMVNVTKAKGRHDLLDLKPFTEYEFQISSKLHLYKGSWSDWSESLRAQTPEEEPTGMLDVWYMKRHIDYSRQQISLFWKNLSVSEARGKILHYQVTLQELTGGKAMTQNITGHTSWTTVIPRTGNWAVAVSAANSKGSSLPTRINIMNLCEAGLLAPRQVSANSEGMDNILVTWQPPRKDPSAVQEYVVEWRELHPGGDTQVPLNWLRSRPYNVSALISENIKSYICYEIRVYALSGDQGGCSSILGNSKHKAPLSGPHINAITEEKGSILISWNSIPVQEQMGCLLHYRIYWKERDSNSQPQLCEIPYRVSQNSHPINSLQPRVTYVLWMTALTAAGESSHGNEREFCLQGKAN

T2: biotinylated recombinant mouse IL-12Rβ2 (mouse, UniProt P97378 24-637, random biotinylated)
T2 construct: Recombinant protein produced in-house; also called mIL-12RB2; mouse IL-12RB2
T2 sequence: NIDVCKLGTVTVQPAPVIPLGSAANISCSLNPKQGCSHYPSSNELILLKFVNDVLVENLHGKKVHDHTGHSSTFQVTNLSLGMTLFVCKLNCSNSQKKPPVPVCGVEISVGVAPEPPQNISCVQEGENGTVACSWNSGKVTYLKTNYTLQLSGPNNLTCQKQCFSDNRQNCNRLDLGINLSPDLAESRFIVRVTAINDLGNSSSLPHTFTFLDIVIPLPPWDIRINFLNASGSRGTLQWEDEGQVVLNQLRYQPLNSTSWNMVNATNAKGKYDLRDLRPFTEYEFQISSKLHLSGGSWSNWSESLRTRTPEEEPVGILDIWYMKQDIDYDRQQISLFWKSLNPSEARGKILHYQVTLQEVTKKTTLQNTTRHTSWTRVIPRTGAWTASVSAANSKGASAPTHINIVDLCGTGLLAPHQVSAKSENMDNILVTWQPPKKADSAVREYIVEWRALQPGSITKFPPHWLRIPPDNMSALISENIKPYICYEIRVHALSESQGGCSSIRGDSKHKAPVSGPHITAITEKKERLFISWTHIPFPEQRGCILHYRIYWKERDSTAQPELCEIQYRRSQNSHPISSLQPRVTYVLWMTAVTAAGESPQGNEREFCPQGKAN

B1: anti-IL-12Rβ2 VHH clone 3CRHS9 (clone ID 20415) (VHH, not shown: small tags and cut ends)
VHH: QVQLQESGGGLVQPGGSLRLSCTASGSIVSIYNMDWYRQAPGNEREWVASITSSGDPYYDGSAKGRFTISRDNAKMTVYLQMNSLKPEDTAVYYCKVPTEKGNYWGQGTQVTVSS
notes: periplasmic extract
B2: anti-IL-12Rβ2 VHH clone 3CRH18 (clone ID 20377) (VHH, not shown: small tags and cut ends)
VHH: B1 VHH with S27N, E44Q, K86R
notes: periplasmic extract
B3: anti-IL-12Rβ2 VHH clone 3CRHS3 (clone ID 20414) (VHH, not shown: small tags and cut ends)
VHH: B1 VHH with V29F, E44Q, G61A, A63V, N73S, V97L
notes: periplasmic extract
B4: anti-IL-12Rβ2 VHH clone 3CRHS100 (clone ID 20428) (VHH, not shown: small tags and cut ends)
VHH: B1 VHH with V29F, E44Q, S53P, G61D
notes: periplasmic extract
B5: anti-IL-12Rβ2 VHH clone 3CRH27 (clone ID 20379) (VHH, not shown: small tags and cut ends)
VHH: B1 VHH with P14A
notes: periplasmic extract
B6: anti-IL-12Rβ2 VHH clone 3CRHS55 (clone ID 20423) (VHH, not shown: small tags and cut ends)
VHH: B1 VHH with P14A, R19N, V29I, E44Q, S54N, P57S, K101N
notes: periplasmic extract
B7: anti-IL-12Rβ2 VHH clone 3CRHS148 (clone ID 20436) (VHH, not shown: small tags and cut ends)
VHH: B1 VHH with T23I, V29F, E44Q, S53P, G61D
notes: periplasmic extract
B8: anti-IL-12Rβ2 VHH clone 3CRHS54 (clone ID 20422) (VHH, not shown: small tags and cut ends)
VHH: B1 VHH with K86E, Y94F
notes: periplasmic extract
B9: anti-IL-12Rβ2 VHH clone 3CRH68 (clone ID 20388) (VHH, not shown: small tags and cut ends)
VHH: B1 VHH with V29L, A40V, E44Q, S53P, A63V, T77M
notes: periplasmic extract
B10: anti-IL-12Rβ2 VHH clone 2CRH33 (clone ID 20363) (VHH, not shown: small tags and cut ends)
VHH: QVQLQESGGGSVQPGWSLRLTCAASGFTFSTSGMHWFRQAPGKGLEWVSSISSGGGDTYYTDSVKGRITISRDNAKNTLYLQLNDLKSEDTAVYYCSKDPSGATRGQGTQVTVSS
notes: periplasmic extract
B11: anti-IL-12Rβ2 VHH clone 2CRH60 (clone ID 20367) (VHH, not shown: small tags and cut ends)
VHH: B10 VHH with W16G
notes: periplasmic extract
B12: anti-IL-12Rβ2 VHH clone 2CRH10 (clone ID 20362) (VHH, not shown: small tags and cut ends)
VHH: QVQLQESGGGLVQAGGSLVLSCAASGSAALIFLMSWYRQAPGKQRELVAEVSRGGSTTYADSVEGRFHISRDNAKNIVDLQMNSLKPEDTAVYYCKADQNYGDSLRSSWGRGTQVTVSS
notes: periplasmic extract
B13: anti-IL-12Rβ2 VHH clone 3CRH38 (clone ID 20381) (VHH, not shown: small tags and cut ends)
VHH: B12 VHH with H68T
notes: periplasmic extract
B14: anti-IL-12Rβ2 VHH clone 3CRH5 (clone ID 20373) (VHH, not shown: small tags and cut ends)
VHH: B12 VHH with H68T, R111Q
notes: periplasmic extract
B15: anti-IL-12Rβ2 VHH clone 2CRH73 (clone ID 20369) (VHH, not shown: small tags and cut ends)
VHH: B12 VHH with V19R, S21T, A23T, G54R, H68T, N100Y
notes: periplasmic extract
B16: anti-IL-12Rβ2 VHH clone 3CRHS184 (clone ID 20441) (VHH, not shown: small tags and cut ends)
VHH: B12 VHH with G54Y, H68T, N100Y, V115L
notes: periplasmic extract
B17: anti-IL-12Rβ2 VHH clone 2CRH53 (clone ID 20366) (VHH, not shown: small tags and cut ends)
VHH: B12 VHH with G54Y, H68T, N76D, N100Y
notes: periplasmic extract
B18: anti-IL-12Rβ2 VHH clone 3CRHS2 (clone ID 20413) (VHH, not shown: small tags and cut ends)
VHH: B12 VHH with A14L, V19T, G54Y, H68T, N100Y
notes: periplasmic extract
B19: anti-IL-12Rβ2 VHH clone 3CRHS1 (clone ID 20412) (VHH, not shown: small tags and cut ends)
VHH: QVQLQESGGGSVQPGGSLRLSCAASGFTFSTSGMHWFRQAPGKGLEWVSSIGIIVDSSYYASSVKGRFTISRDNAKNTLYLQMNSLKSEDTAVYYCSKDPTGSSRGQGTQVTVSS
notes: periplasmic extract
B20: anti-IL-12Rβ2 VHH clone 3CRHS128 (clone ID 20432) (VHH, not shown: small tags and cut ends)
VHH: B19 VHH with S11L, I53A, I54T, S57N, Q82L
notes: periplasmic extract
B21: anti-IL-12Rβ2 VHH clone 3CRH45 (clone ID 20383) (VHH, not shown: small tags and cut ends)
VHH: B19 VHH with S11L, S32F, V55D, S57N, P100T
notes: periplasmic extract
B22: anti-IL-12Rβ2 VHH clone 3CRH14 (clone ID 20374) (VHH, not shown: small tags and cut ends)
VHH: B19 VHH with S11L, S62D, Y80F
notes: periplasmic extract
B23: anti-IL-12Rβ2 VHH clone 3CRH43 (clone ID 20382) (VHH, not shown: small tags and cut ends)
VHH: B19 VHH with T78I, L79V
notes: periplasmic extract
B24: anti-IL-12Rβ2 VHH clone 2CRH80 (clone ID 20371) (VHH, not shown: small tags and cut ends)
VHH: B19 VHH with S11L, D56G, Q82H, P100V
notes: periplasmic extract
B25: anti-IL-12Rβ2 VHH clone 3CRHS109 (clone ID 20430) (VHH, not shown: small tags and cut ends)
VHH: B19 VHH with S11L, Q82H, P100V
notes: periplasmic extract
B26: anti-IL-12Rβ2 VHH clone 3CAHS39 (clone ID 20393) (VHH, not shown: small tags and cut ends)
VHH: QVQLQESGGGLVQAGGSLRLSCAASGRTINAYIMGWFRQAPGKEREFVAAVSGSGGSTYYADSVKGRFTISRDNAKNTVNLQMDNLRSEDTDVYYCAATYESVYLQNPGQYDYWGQGTQVTVSS
notes: periplasmic extract
B27: anti-IL-12Rβ2 VHH clone 3CAHS43 (clone ID 20395) (VHH, not shown: small tags and cut ends)
VHH: B26 VHH with L11S, Q106R
notes: periplasmic extract
B28: anti-IL-12Rβ2 VHH clone 3CAHS52 (clone ID 20396) (VHH, not shown: small tags and cut ends)
VHH: B26 VHH with L11S
notes: periplasmic extract
B29: anti-IL-12Rβ2 VHH clone 3CAHS53 (clone ID 20397) (VHH, not shown: small tags and cut ends)
VHH: B26 VHH with Q13E, A14P, N74S
notes: periplasmic extract

biological target: T1, biotinylated recombinant human IL-12Rβ2; assay: BLI, P.E., off-rate ranking

| Response | koff | Binder |
| --- | --- | --- |
| 0.222 | 0.0034 s⁻¹ | B1 |
| -0.19 |  | B2 |
| 0.327 | 0.00225 s⁻¹ | B3 |
| 0.209 | 0.00322 s⁻¹ | B4 |
| 0.138 | 0.00264 s⁻¹ | B5 |
| 0.204 | 0.00296 s⁻¹ | B6 |
| 0.0184 |  | B7 |
| 0.203 | 0.00272 s⁻¹ | B8 |
| 0.426 | 0.00444 s⁻¹ | B9 |
| 0.621 | 0.00491 s⁻¹ | B10 |
| 0.661 | 0.00533 s⁻¹ | B11 |
| 0.496 | 0.00524 s⁻¹ | B12 |
| 0.475 | 0.00413 s⁻¹ | B13 |
| 0.491 | 0.00337 s⁻¹ | B14 |
| 0.547 | 0.00536 s⁻¹ | B15 |
| 0.515 | 0.00385 s⁻¹ | B16 |
| 0.652 | 0.00598 s⁻¹ | B17 |
| 0.5 | 0.00404 s⁻¹ | B18 |
| 0.3 | 0.00283 s⁻¹ | B19 |
| 0.294 | 0.00274 s⁻¹ | B20 |
| 0.427 | 0.00361 s⁻¹ | B21 |
| 0.438 | 0.00328 s⁻¹ | B22 |
| 0.296 | 0.00243 s⁻¹ | B23 |
| 0.53 | 0.00353 s⁻¹ | B24 |
| 0.745 | 0.0374 s⁻¹ | B25 |
| 0.612 | 0.00508 s⁻¹ | B26 |
| 0.605 | 0.00485 s⁻¹ | B27 |
| 0.508 | 0.00422 s⁻¹ | B28 |
| 0.47 | 0.00479 s⁻¹ | B29 |

biological target: T1, biotinylated recombinant human IL-12Rβ2; assay: ELISA, P.E., biotinylated antigen

| ELISA hIL-12RB2/control | Binder |
| --- | --- |
| 5.08 | B1 |
| 5.84 | B2 |
| 6.39 | B3 |
| 5.88 | B4 |
| 10.2 | B5 |
| 3.76 | B6 |
| 3.36 | B7 |
| 7.85 | B8 |
| 4.66 | B9 |
| 6.44 | B10 |
| 5.31 | B11 |
| 6.22 | B12 |
| 11.8 | B13 |
| 8.64 | B14 |
| 4.37 | B15 |
| 4.17 | B16 |
| 5.51 | B17 |
| 5.59 | B18 |
| 6.74 | B19 |
| 3.65 | B20 |
| 4.58 | B21 |
| 5.51 | B22 |
| 4.75 | B23 |
| 5.01 | B24 |
| 3.18 | B25 |
| 4.73 | B26 |
| 8.23 | B27 |
| 10 | B28 |
| 6.58 | B29 |

biological target: T2, biotinylated recombinant mouse IL-12Rβ2; assay: ELISA, P.E., biotinylated antigen

| ELISA mIL-12RB2/control | Binder |
| --- | --- |
| 1.09 | B1 |
| 1.8 | B2 |
| 1.05 | B3 |
| 1.05 | B4 |
| 1.44 | B5 |
| 1.11 | B6 |
| 0.74 | B7 |
| 1.26 | B8 |
| 1.03 | B9 |
| 0.971 | B10 |
| 0.866 | B11 |
| 0.886 | B12 |
| 1.85 | B13 |
| 0.808 | B14 |
| 0.606 | B15 |
| 1.06 | B16 |
| 0.967 | B17 |
| 1.01 | B18 |
| 1.01 | B19 |
| 0.984 | B20 |
| 1.39 | B21 |
| 1.19 | B22 |
| 0.828 | B23 |
| 1.23 | B24 |
| 1.07 | B25 |
| 1.14 | B26 |
| 1.31 | B27 |
| 1.22 | B28 |
| 1.1 | B29 |

Reference: patent US20260209362A1 (VIB VZW, published 2026)
